Here are results for 28 molecules from patent publication US20220380463A1 (Adimab, published 2022).

Numbering of substitutions follows the chain as printed.

This assay concerns the target T1, Cynomolgus CD3εδ Fc heterodimer (Cy CD3ε Fc / CD3δ Fc-HIS) (cynomolgus, UniProt Q95LI8 22-100).
T1 chain 1: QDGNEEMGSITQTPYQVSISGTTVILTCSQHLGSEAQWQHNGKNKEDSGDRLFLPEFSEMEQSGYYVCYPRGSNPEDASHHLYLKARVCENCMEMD
T1 chain 2: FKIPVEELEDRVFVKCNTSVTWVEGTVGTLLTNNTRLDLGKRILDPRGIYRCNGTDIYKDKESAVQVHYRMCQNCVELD
Description: BLI (Octet), IgG on AHC sensor, pH 6.0.

In general, koff refers to the first-order rate constant of dissociation. Low values mean slow dissociation, high ones fast dissociation.

B1: SAD10318_P03_A08 (ADI-57283) (antibody, V domains shown)
VH: QVQLVQSGAEVKKPGASVKVSCKASGFNIKDYYMHWVRQAPGQRLEWMGWIDLENANTIYDAKFQGRVTITRDTSASTAYMELSSLRSEDTAVYYCARDAYGRYHYDHWGQGTLVTVSS
VL: DIVMTQSPDSLAVSLGERATINCKSSQSLLNARTGHNHLAWYQQKPGQPPKLLIYWASTRESGVPDRFSGSGSGTDFTLTISSLQAEDVAVYYCKQSYSRRTFGGGTKVEIK
notes: IgG; also called Ab195
In the case of B1, the koff came out at 0.006 s⁻¹.

B2: SAD10318_P04_F10 (ADI-57289) (antibody, V domains shown)
VH: B1 VH with G102H, H108V
VL: B1 VL with G35H, H36K
notes: IgG; also called Ab213
With B2, the koff was 0.00436 s⁻¹.

B3: SAD10319_P01_D02 (ADI-57303) (antibody, V domains shown)
VH: QVQLVQSGAEVKKPGASVKVSCKASGYTFTEYDMHWVRQAPGQRPEWMGWIDAGTGATVYSQKFQGRVTITRDTSASTAYMELSSLRSEDTAVYYCARDAYGRYFYDHWGQGTLVTVSS
VL: B1 VL with H36K, H38Y
notes: IgG; also called Ab239
Consider B3, for which the koff was 0.00686 s⁻¹.

B4: SAD10318_P04_D10 (ADI-48613) (antibody, V domains shown)
VH: B1 VH with R103H, H108V
VL: B1 VL with N31H, H36K
notes: IgG; also called Ab211
For the molecule B4, the koff came to 0.00251 s⁻¹.

B5: SAD10318_P04_G12 (ADI-57296) (antibody, V domains shown)
VH: B1 VH with R103H, H108V
VL: B1 VL with R33H, H36K
notes: IgG; also called Ab227
On to B5, for which the koff came to 0.0025 s⁻¹. This koff and that of the molecule before are within 1.5-fold of each other.

B6: SAD10319_P01_F01 (ADI-57299) (antibody, V domains shown)
VH: B3 VH with T30Q, E31S, P45L, E46Q, D52N, A53P, G54T, A57N, H108V
VL: B1 VL with H36K, H38Y
notes: IgG; also called Ab233
B6 showed a koff of 0.0179 s⁻¹.

B7: SAD10318_P04_E10 (ADI-57288) (antibody, V domains shown)
VH: B1 VH
VL: DIVMTQSPDSLAVSLGERATINCKSSQSLLNARTGHNYLAWYQQKPGQPPKLLISGSTRESGVPDRFSGSGSGTDFTLTISSLQAEDVAVYYCHQSYHRRTFGGGTKVEIK
notes: IgG; also called Ab212
With B7, the koff is 0.00245 s⁻¹.

B8: SAD10319_P01_A01 (ADI-48619) (antibody, V domains shown)
VH: QVQLVQSGAEVKKPGASVKVSCKASGYTFASYAMHWVRQAPGQRLEWMGWINPDTGNTVYSQKFQGRVTITRDTSASTAYMELSSLRSEDTAVYYCARDAYHHYFYDVWGQGTLVTVSS
VL: B1 VL with H36K, H38Y
notes: IgG; also called Ab229
Take B8: the koff turned out to be 0.0328 s⁻¹.

B9: SAD10319_P01_D01 (ADI-48622) (antibody, V domains shown)
VH: B3 VH with T30K, E31S, P45L, A57N, V59K, H108V
VL: B1 VL with H36K, H38Y
notes: IgG; also called Ab231
Consider B9, for which the koff was 0.00946 s⁻¹.

B10: SAD10319_P01_C03 (ADI-48626) (antibody, V domains shown)
VH: B3 VH with E31D, P45L, A53P, G54Y, V59K, R103H, H108V
VL: B1 VL with H36K, H38Y
notes: IgG; also called Ab244
B10 yielded a koff of 0.0196 s⁻¹.

B11: SAD10318_P03_G08 (ADI-57285) (antibody, V domains shown)
VH: B1 VH with A100H, G102H, H105F, H108V
VL: B1 VL with N31H, H36K, Y98H, R100H
notes: IgG; also called Ab201
Molecule B11 had a koff of 0.00544 s⁻¹.

B12: SAD10319_P01_E01 (ADI-57298) (antibody, V domains shown)
VH: B3 VH with T30D, E31A, D33A, P45L, V59A, A100H, R103H, H108V
VL: B1 VL with H36K, H38Y
notes: IgG; also called Ab232
The molecule B12 returned a koff of 0.0281 s⁻¹.

B13: SAD10318_P04_F11 (ADI-57293) (antibody, V domains shown)
VH: B1 VH with I29T, Y101H, H108V
VL: B1 VL
notes: IgG; also called Ab221
As to B13, the dissociation rate constant (koff) came out at 0.00183 s⁻¹.

B14: SAD10318_P03_F09 (ADI-57286) (antibody, V domains shown)
VH: B1 VH with R103H, H108V
VL: B1 VL with R33H, T34P, H36K, H38Y, K95H, S99H
notes: IgG; also called Ab208
As for B14, the koff was 0.00139 s⁻¹.

B15: SAD10318_P04_H10 (ADI-57290) (antibody, V domains shown)
VH: B1 VH with A100H, R103H, H105F, H108V
VL: B1 VL with R33H, H36K
notes: IgG; also called Ab214
As to B15, the koff was 0.00284 s⁻¹.

B16: SAD10318_P03_G09 (ADI-57287) (antibody, V domains shown)
VH: B1 VH with A100H, R103H, H105F, H108V
VL: B1 VL with R33H, H38Y, K95H, R100H
notes: IgG; also called Ab209
The molecule B16 came in with a koff of 0.00559 s⁻¹.

B17: SAD10319_P01_C02 (ADI-57302) (antibody, V domains shown)
VH: B8 VH with A30T, S31E, A33N, D54L, V59L
VL: B1 VL with H36K, H38Y
notes: IgG; also called Ab238
In turn, B17 returned a koff of 0.0251 s⁻¹.

B18: SAD10319_P01_A02 (ADI-57301) (antibody, V domains shown)
VH: B8 VH with A30T, S31E, A33E, D54L, V59K, A100H, H102G
VL: B1 VL with H36K, H38Y
notes: IgG; also called Ab236
On to B18, for which the koff turned out to be 0.0165 s⁻¹.

B19: SAD10318_P04_E11 (ADI-57292) (antibody, V domains shown)
VH: B1 VH with R103H, H105F
VL: B1 VL with K95H, R100H
notes: IgG; also called Ab220
B19 came in with a koff of 0.00256 s⁻¹.

B20: SAD10319_P01_G01 (ADI-57300) (antibody, V domains shown)
VH: B3 VH with E31S, Y32A, P45L, E46Q, W47P, D52N, V59K, S77N, H108V
VL: B1 VL with H36K, H38Y
notes: IgG; ADI-57300 is also printed for Ab28; also called Ab234
Regarding B20, the koff stood at 0.00249 s⁻¹.

B21: SAD10319_P01_B03 (ADI-57305) (antibody, V domains shown)
VH: B8 VH with A30N, S31A, N57A, V59T
VL: B1 VL with H36K, H38Y
notes: IgG; also called Ab243
Molecule B21 registered a koff of 0.0245 s⁻¹.

B22: SAD10319_P01_H02 (ADI-48625) (antibody, V domains shown)
VH: B8 VH with A30T, S31D, D54S, N57A
VL: B1 VL with H36K, H38Y
notes: IgG; also called Ab242
Take B22: the koff was 0.0314 s⁻¹. The koff values of the last two molecules are within 1.5-fold of each other.

B23: SAD10319_P01_F02 (ADI-48624) (antibody, V domains shown)
VH: QVQLVQSGAEVKKPGASVKVSCKASGYTFESYDMHWVRQAPGQRLEWMGWIDAGTGNTKYSQKFQGRVTITADESTSTAYMELSSLRSEDTAVYYCARDHYGHYFYDVWGQGTLVTVSS
VL: B1 VL with H36K, H38Y
notes: IgG; also called Ab241
Take B23: the koff was 0.00522 s⁻¹. This koff lies about 6-fold lower than the previous one.

B24: SAD10318_P04_H12 (ADI-57297) (antibody, V domains shown)
VH: B1 VH with Y101H, H105F, Y106H, H108V
VL: B1 VL with R33H, H36K, K95H, R100H
notes: IgG; also called Ab228
Molecule B24 displayed a koff of 0.00254 s⁻¹.

B25: SAD10319_P01_D03 (ADI-57306) (antibody, V domains shown)
VH: B8 VH with A30T, A33N, N52D, P53A, D54G, N57A, V59H
VL: B1 VL with H36K, H38Y
notes: IgG; also called Ab245
Molecule B25 returned a koff of 0.00221 s⁻¹.

B26: SAD10319_P01_C01 (ADI-48621 and ADI-48636) (antibody, V domains shown)
VH: B23 VH with E30T, S31D, N57L, A72R, E74T, T76A
VL: B1 VL with H36K, H38Y
notes: IgG; also called Ab230
With B26, the koff came to 0.00402 s⁻¹.

B27: SAD10318_P04_G11 (ADI-57294) (antibody, V domains shown)
VH: B1 VH with T74A, G102H, H108V
VL: B1 VL with R33H, H36K, Y98H
notes: IgG; also called Ab222
In turn, B27 came in with a koff of 0.00215 s⁻¹.

B28: SAD10318_P03_B08 (ADI-57284) (antibody, V domains shown)
VH: B1 VH with A100H, G102H, H105F, H108V
VL: B1 VL with R33H, H38Y, K95H, R100H
notes: IgG; also called Ab196
Regarding B28, the koff stood at 0.00303 s⁻¹.
